Results as given in US7135170B2 (ZymoGenetics, Inc., priority 2002, dated 2006).

B1: IL-29: human IL-29 polypeptide, previous designation zcyto21 (SEQ ID NOS: 4, 20, 38) (protein, listed as Homo sapiens)
chain: MAAAWTVVLVTLVLGLAVAGPVPTSKPTTTGKGCHIGRFKSLSPQELASFKKARDALEESLKLKNWSCSSPVFPGNWDLRLLQVRERPVALEAELALTLKVLEAAAGPALEDVLDQPLHTLHHILSQLQACIQPQPTAGPRPRGRLHHWLHRLQEAPKKESAGCLEASVTFNLFRLLTRDLKYVADGNLCLRTSTHPEST
modifications: SIGNAL (1)...(19)
B2: Zcyto24: previous designation for mouse IL-28A (SEQ ID NO: 8); mouse IL-28 (zcyto24) in b234 (protein, listed as Mus musculus)
chain: MKPETAGGHMLLLLLPLLLAAVLTRTQADPVPRATRLPVEAKDCHIAQFKSLSPKELQAFKKAKDAIEKRLLEKDLRCSSHLFPRAWDLKQLQVQERPKALQAEVALTLKVWENMTDSALATILGQPLHTLSHIHSQLQTCTQLQATAEPRSPSRRLSRWLHRLQEAQSKETPGCLEASVTSNLFRLLTRDLKCVANGDQCV
B3: IL-28A: human IL-28A polypeptide, previous designation zcyto20 (SEQ ID NOS: 2, 18, 36) (protein, listed as Homo sapiens)
chain: MKLDMTGDCTPVLVLMAAVLTVTGAVPVARLHGALPDARGCHIAQFKSLSPQELQAFKRAKDALEESLLLKDCRCHSRLFPRTWDLRQLQVRERPMALEAELALTLKVLEATADTDPALVDVLDQPLHTLHHILSQFRACIQPQPTAGPRTRGRLHHWLYRLQEAPKKESPGCLEASVTFNLFRLLTRDLNCVASGDLCV
modifications: SIGNAL (1)...(25)

How the values were obtained:
HSV-2 = HSV-2 cytopathic effect inhibition in Vero cells; assay type: cell-based, Herpes Simplex Virus-2; settings: HSV-2, Vero cells
Method: The Vero cells are propagated in Dulbecco's modified essential medium (DMEM) containing phenol red with 10% horse serum, 1% glutamine and 1% penicillin-streptomycin, while the CPE inhibition assays are performed in DMEM without phenol red with 2% FBS, 1% glutamine and 1% Pen-Strep. On the day preceding the assays, cells were trypsinized (1% trypsin-EDTA), washed, counted and plated out at 10^4 cells/well in a 96-well flat-bottom BioCoat® plates (Fisher Scientific, Pittsburgh, Pa.) in a volume of 100 μl/well. The next morning, the medium was removed and a pre-titered aliquot of virus was added to the cells. The amount of virus used is the maximum dilution that would yield complete cell killing (>80% ) at the time of maximal CPE development. Cell viability is determined using a CellTiter 96® reagent (Promega) according to the manufacturer's protocol, using a Vmax plate reader (Molecular Devices, Sunnyvale, Calif.). Compounds are tested at six concentrations each, diluted in assay medium in a half-log series. Acyclovir was used as a positive control. Compounds are added at the time of viral infection. The average background and drug color-corrected data for percent CPE reduction and percent cell viability at each concentration are determined relative to controls and the IC50 calculated relative to the TC50.

[1] = test system: ISG gene expression (OAS, Pkr, Mx1) in liver, spleen and blood; assay: ISG gene expression in liver, spleen and blood of injected mice (real-time PCR); assay type: in vivo, mouse; settings: mice
Method: Mice were sacrificed at various time points (1 hr-48 hr). Spleens and livers were isolated from mice, and RNA was isolated. RNA was also isolated from the blood cells. The cells were pelleted and RNA isolated from pellets using RNAEasy®-kit (Qiagen). RNA was treated with DNase (Amicon) to rid RNA of any contaminating DNA. cDNA was generated using Perkin-Elmer RT mix (Perkin-Elmer). ISG gene induction was measured by real-time PCR using primers and probes specific for mouse OAS, Pkr and Mx1. To obtain quantitative data, HPRT real-time PCR was duplexed with ISG PCR. A standard curve was calculated using known amounts of IFN-stimulated mouse PBLs. All data are shown as expression relative to internal HPRT expression.
Results shown are fold expression relative to HPRT gene expression. […] The data shown is the average expression from 5 different animals/group.
Mice were injected with 100 μg of proteins i.v. Data shown is fold expression over HPRT expression from livers of mice. Similar data was obtained from blood and spleens of mice.

[2] = test system: ISGs OAS, Pkr and Mx1 in spleens; assay: ISG expression in spleens of Eu-lck human IL-29 transgenic mice; assay type: in vivo, mouse; settings: spleen of IL-29 Tg mice
Method: This promoter is active in T cells and B cells. Transgenic mice and their non-transgenic littermates (n=2/gp) were sacrificed at about 10 weeks of age. Spleens of mice were isolated. RNA was isolated from cell pellets using RNAEasy-kit® (Qiagen). RNA was treated with DNase to clean RNA of any contaminating DNA. cDNA was generated using Perkin-Elmer RT® mix. ISG gene induction was evaluated by real-time PCR using primers and probes (5′ FAM, 3′ NFQ) specific for mouse OAS, Pkr and Mx1. To obtain quantitative data, HPRT real-time PCR was duplexed with ISG PCR. Furthermore, a standard curve was obtained using known amounts of IFN stimulated mouse PBLs. All data are shown as expression relative to internal HPRT expression.
All data shown are fold expression relative to HPRT gene expression. The average expression in two mice is shown

EMCV = EMCV antiviral assay (MTT dye-uptake) in HepG2 cells; assay type: cell-based, encephalomyocarditis virus; settings: cytokine 24 hours before EMCV, OD570
[3] = test system: human marrow mononuclear cells; assay: Bone marrow expansion assay (Alamar Blue); assay type: cell-based; settings: in the presence of IL-2 or IL-15
adenoviral vector, AdGFP = assay: Adenoviral vector (AdGFP) liver pathology in mice; settings: for liver and inflammation scores (histology): vs the PBS-treated group
[4] = test system: ISG induction (OAS, Pkr, Mx1) in AML-12 cells; assay: ISG induction in the mouse liver cell line AML-12 (real-time PCR); assay type: cell-based; settings: AML-12, 20 ng/ml, 48 hour time point
Method: AML-12 cells were plated in 6-well plates in complete DMEM media at a concentration of 2×10^6 cells/well. […] As a control, cells were either stimulated with mouse IFNα (positive control) or unstimulated (negative). […] RNA was isolated from cell pellets using RNAEasy-kit® (Qiagen, Valencia, Calif.). RNA was treated with DNase (Millipore, Billerica, Mass.) to clean RNA of any contaminating DNA. cDNA was generated using Perkin-Elmer RT mix. ISG gene induction was evaluated by real-time PCR using primers and probes specific for mouse OAS, Pkr and Mx1. To obtain quantitative data, HPRT real-time PCR was duplexed with ISG PCR. A standard curve was obtained using known amounts of RNA from IFN-stimulated mouse PBLs. All data are shown as expression relative to internal HPRT expression.
All data shown were expressed as fold relative to HPRT gene expression

HHV-8 = HHV-8 replication in BCBL-1 cells (TaqMan PCR, CellTiter96); assay type: cell-based, Human Herpesvirus-8; settings: six days
BVDV = BVDV cytopathic effect inhibition in MDBK bovine kidney cells; assay type: cell-based, bovine viral diarrhea virus
Method: The MDBK cells were propagated in Dulbecco's modified essential medium (DMEM) containing phenol red with 10% horse serum, 1% glutamine and 1% penicillin-streptomycin. CPE inhibition assays were performed in DMEM without phenol red with 2% FBS, 1% glutamine and 1% Pen-Strep. On the day preceding the assays, cells were trypsinized (1% trypsin-EDTA), washed, counted and plated out at 10^4 cells/well in a 96-well flat-bottom BioCoat® plates (Fisher Scientific, Pittsburgh, Pa.) in a volume of 100 μl/well. The next day, the medium was removed and a pre-titered aliquot of virus was added to the cells. The amount of virus was the maximum dilution that would yield complete cell killing (>80% ) at the time of maximal CPE development (day 7 for BVDV). Cell viability was determined using a CellTiter96® reagent (Promega) according to the manufacturer's protocol, using a Vmax plate reader (Molecular Devices, Sunnyvale, Calif.). Test samples were tested at six concentrations each, diluted in assay medium in a half-log series. IFNα and RIBAVIRIN® were used as positive controls. Test sample were added at the time of viral infection. The average background and sample color-corrected data for percent CPE reduction and percent cell viability at each concentration were determined relative to controls and the IC50 calculated relative to the TC50.

[5] = test system: ISRE signaling in HepG2 cells; assay: ISRE-luciferase signal transduction reporter assay in HepG2 cells; assay type: cell-based, human; settings: 100 ng/ml ligand, 4-hour; RLU over medium alone
Mouse B cells = assay: Mouse B cell 3H-thymidine incorporation; assay type: cell-based
Method: Mouse B cells were isolated from 2 Balb/C spleens (7 months old) by depleting CD43+ cells using MACS magnetic beads. Purified B cells were cultured in vitro with LPS, anti-IgM or anti-CD40 monoclonal antibodies. Mouse IL-28 or mouse IFNα was added to the cultures and ^3H-thymidine was added at 48 hrs. and ^3H-thymidine incorporation was measured after 72 hrs. culture.

OAS activity = OAS activity in serum and plasma of mice (OAS radioimmunoassay); assay type: in vivo, mouse; settings: i.v., 10 μg–250 μg
Method: Serum and plasma were isolated from mice at varying time points, and OAS activity was measured using the OAS radioimmunoassay (RIA) kit from Eiken Chemicals (Tokyo, Japan).

[6] = average of two mice (Non-Tg 4.5)

Molecule | antiviral activity (HSV-2) | time of peak expression of ISGs after injection [1] | Mx1 expression ([2]; average of two mice (Non-Tg 3.5)) | OAS expression [2, 6] | PkR expression [2, 6] | EC50 (EMCV) | expansion of bone marrow cells [3] | liver histology: sinusoidal cells, mitotic figures, changes in the hepatocytes (adenoviral vector, AdGFP; vs the PBS treatment group) | liver and inflammation scores (histology) (adenoviral vector, AdGFP) | Mx1 expression [4] | OAS expression [4] | PkR expression [4] | IC50, extracellular HHV-8 DNA (HHV-8) | IC50, inhibition of cell death induced by BVDV (BVDV) | Fold Inductn. of ISRE signaling [5] | 3H-thymidine incorporation by mouse B cells (Mouse B cells; stimulated with LPS or anti-IgM, IFNα 10 ng/ml, mouse IL-28 any concentration incl. 1000 ng/ml) | 3H thymidine incorporation by mouse B cells (Mouse B cells; stimulated with anti-CD40 MAb) | OAS activity in the serum and plasma of mice (OAS activity)
IFNα | no antiviral activity | – | – | – | – | – | – | – | – | – | – | – | – | – | – | – | – | –
B1 | – | 1 to 6 h | 21 fold expression relative to HPRT gene expression | 12 fold expression relative to HPRT gene expression | 8 fold expression relative to HPRT gene expression | 0.0006 µg/mL | small inhibition | less proliferation of sinusoidal cells, fewer mitotic figures and fewer changes in the hepatocytes | lower liver and inflammation scores | 0.07 fold relative to HPRT gene expression | 0.04 fold relative to HPRT gene expression | 0.02 fold relative to HPRT gene expression | 6.5 µg/mL | 0.19 µg/mL | – | – | – | –
B2 | – | – | – | – | – | – | – | – | lower liver and inflammation scores | 0.08 fold relative to HPRT gene expression | 0.04 fold relative to HPRT gene expression | 0.02 fold relative to HPRT gene expression | – | – | 4.7 fold | did not inhibit | increased | –
B3 | – | – | – | – | – | – | – | – | – | 0.06 fold relative to HPRT gene expression | 0.04 fold relative to HPRT gene expression | 0.02 fold relative to HPRT gene expression | 1 µg/mL | 0.02 µg/mL | – | – | – | induced OAS activity
